Earlier results, collected in patent US12478627B2, “Irsogladine for the treatment of eosinophilic gastrointestinal diseases” (EPITHELION SCIENCE BIOTECH, S.L., priority 2019, dated 2025).

System: EoE and EoGIDs
Conditions: patients with EoE or EoGIDs, literature reports

| Molecule | clinical symptoms | tissue eosinophil infiltrate |
| --- | --- | --- |
| Resolizumab: mAb against IL-5 (antibody, chains of the INN, looked up, V domains shown) VH: EVQLVESGGGLVQPGGSLRLSCAVSGLSLTSNSVNWIRQAPGKGLEWVGLIWSNGDTDYNSAIKSRFTISRDTSKSTVYLQMNSLRAEDTAVYYCAREYYGYFDYWGQGTLVTVSS VL: DIQMTQSPSSLSASVGDRVTITCLASEGISSYLAWYQQKPGKAPKLLIYGANSLQTGVPSRFSGSGSATDYTLTISSLQPEDFATYYCQQSYKFPNTFGQGTKVEVK | did not correspond with clinical improvement | significant reduction |
| Mepolizumab: mAb against IL-5 (antibody, chains of the INN, looked up, V domains shown) VH: QVTLRESGPALVKPTQTLTLTCTVSGFSLTSYSVHWVRQPPGKGLEWLGVIWASGGTDYNSALMSRLSISKDTSRNQVVLTMTNMDPVDTATYYCARDPPSSLLRLDYWGRGTPVTVSS VL: DIVMTQSPDSLAVSLGERATINCKSSQSLLNSGNQKNYLAWYQQKPGQPPKLLIYGASTRESGVPDRFSGSGSGTDFTLTISSLQAEDVAVYYCQNVHSFPFTFGGGTKLEIK | did not correspond with clinical improvement | significant reduction |
